Source: the supplement of paper PMC5998384

Tests used:
HeLa Kyoto [1] = experiment: solubility in G1/S (NP-40 vs SDS abundance) (log2 ratio); higher = more soluble; settings: cell cycle stage: G1/S
HeLa Kyoto [2] = experiment: solubility change mitosis vs G1/S (difference of NP-40 vs SDS log2 ratios) (log2 ratio difference); higher = more soluble in mitosis
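Wherever solubility change mitosis vs G1/S (difference of NP-40 vs SDS log2 ratios) is given: synchronized HeLa Kyoto cells (double thymidine block for G1/S, nocodazole release for mitosis), protein amounts in NP-40 versus SDS lysates quantified by mass spectrometry, three biological replicates.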
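Wherever solubility in G1/S (NP-40 vs SDS abundance) is given: HeLa Kyoto cells arrested at G1/S by double thymidine block, proteins quantified by TMT10plex mass spectrometry in mild NP-40 versus SDS extracts, three biological replicates.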

Sequence	solubility in G1/S (log2) (HeLa Kyoto [1])	solubility change mitosis (log2) (HeLa Kyoto [2])
MELENIVANTVLLKAREGGGGNRKGKSKKWRQMLQFPHISQCEELRLSLERDYHSLCERQPIGRLLFREFCATRPELSRCVAFLDGVAEYEVTPDDKRKACGRQLTQNFLSHTGPDLIPEVPRQLVTNCTQRLEQGPCKDLFQELTRLTHEYLSVAPFADYLDSIYFNRFLQWKWLERQPVTKNTFRQYRVLGKGGFGEVCACQVRATGKMYACKKLEKKRIKKRKGEAMALNEKQILEKVNSRFVVSLAYAYETKDALCLVLTLMNGGDLKFHIYHMGQAGFPEARAVFYAAEICCGLEDLHRERIVYRDLKPENILLDDHGHIRISDLGLAVHVPEGQTIKGRVGTVGYMAPEVVKNERYTFSPDWWALGCLLYEMIAGQSPFQQRKKKIKREEVERLVKEVPEEYSERFSPQARSLCSQLLCKDPAERLGCRGGSAREVKEHPLFKKLNFKRLGAGMLEPPFKPDPQAIYCKDVLDIEQFSTVKGVELEPTDQDFYQKFATGSVPIPWQNEMVETECFQELNVFGLDGSVPPDLDWKGQPPAPPKKGLLQRLFSRQDCCGNCSDSEEELPTRL [GRK6]	-0.123	-0.198
MELPAVGEHVFAVESIEKKRIRKGRVEYLVKWRGWSPKYNTWEPEENILDPRLLIAFQNRERQEQLMGYRKRGPKPKPLVVQVPTFARRSNVLTGLQDSSTDNRAKLDLGAQGKGQGHQYELNSKKHHQYQPHSKERAGKPPPPGKSGKYYYQLNSKKHHPYQPDPKMYDLQYQGGHKEAPSPTCPDLGAKSHPPDKWAQGAGAKGYLGAVKPLAGAAGAPGKGSEKGPPNGMMPAPKEAVTGNGIGGKMKIVKNKNKNGRIVIVMSKYMENGMQAVKIKSGEVAEGEARSPSHKKRAADERHPPADRTFKKAAGAEEKKVEAPPKRREEEVSGVSDPQPQDAGSRKLSPTKEAFGEQPLQLTTKPDLLAWDPARNTHPPSHHPHPHPHHHHHHHHHHHHAVGLNLSHVRKRCLSETHGEREPCKKRLTARSISTPTCLGGSPAAERPADLPPAAALPQPEVILLDSDLDEPIDLRCVKTRSEAGEPPSSLQVKPETPASAAVAVAAAAAPTTTAEKPPAEAQDEPAESLSEFKPFFGNIIITDVTANCLTVTFKEYVTV [CBX4]	-0.386	0.583
MENLMTSSTLPPLFADEDGSKESNDLATTGLNHPEVPYSSGATSSTNNPEFVEDLSQGQLLQSESSNAAEGNEQRHEDEQRSKRGGWSKGRKRKKPLRDSNAPKSPLTGYVRFMNERREQLRAKRPEVPFPEITRMLGNEWSKLPPEEKQRYLDEADRDKERYMKELEQYQKTEAYKVFSRKTQDRQKGKSHRQDAARQATHDHEKETEVKERSVFDIPIFTEEFLNHSKAREAELRQLRKSNMEFEERNAALQKHVESMRTAVEKLEVDVIQERSRNTVLQQHLETLRQVLTSSFASMPLPGSGETPTVDTIDSYMNRLHSIILANPQDNENFIATVREVVNRLDR [HMG20A]	-0.0378	0.298
MENLPAVTTEEPTPMGRGPVGPSGGGSTRDQVRTVVMRPSVSWEKAGPEEAKAPVRGDEAPPARVAGPAAGTPPCQMGVYPTDLTLQLLAVRRKSRLRDPGLQQTLRGQLRLLENDSREMARVLGELSARLLSIHSDQDRIVVTFKTFEEIWKFSTYHALGFTHHCLANLLMDQAFWLLLPSEEEETAIQVHVDENALRLTHESLLIQEGPFFVLCPDHHVRVMTGPRDAGNGPQALRQASGAPQGEAAPETDSSPPSPSVSSEEVAVAAAPEPLIPFHQWALRIPQDPIDDAMGGPVMPGNPLMAVGLASALADFQGSGPEEMTFRGGDLIEILGAQVPSLPWCVGRHAASGRVGFVRSSLISMQGPVSELESAIFLNEEEKSFFSEGCFSEEDARQLLRRMSGTDVCSVYSLDSVEEAETEQPQEKEIPPPCLSLEPQETLQKVKNVLEQCKTCPGCPQEPASWGLCAASSDVSLQDPEEPSFCLEAEDDWEDPEALSSLLLFLNAPGYKASFRGLYDVALPWLSSVFRSFSDEEELTGRLAQARGAAKKAGLLMALARLCFLLGRLCSRRLKLSQARVYFEEALGALEGSFGDLFLVVAVYANLASIYRKQKNREKCAQVVPKAMALLLGTPDHICSTEAEGELLQLALRRAVGGQSLQAEARACFLLARHHVHLKQPEEALPFLERLLLLHRDSGAPEAAWLSDCYLLLADIYSRKCLPHLVLSCVKVASLRTRGSLAGSLRSVNLVLQNAPQPHSLPAQTSHYLRQALASLTPGTGQALRGPLYTSLAQLYSHHGCHGPAITFMTQAVEASAIAGVRAIVDHLVALAWLHVLHGQSPVALDILQSVRDAVVASEDQEGVIANMVAVALKRTGRTRQAAESYYRALRVARDLGQQRNQAVGLANFGALCLHAGASRLAQHYLLEAVRLFSRLPLGECGRDFTHVLLQLGHLCTRQGPAQQGKGYYEWALLVAVEMGHVESQLRAVQRLCHFYSAVMPSEAQCVIYHELQLSLACKVADKVLEGQLLETISQLYLSLGTERAYKSALDYTKRSLGIFIDLQKKEKEAHAWLQAGKIYYILRQSELVDLYIQVAQNVALYTGDPNLGLELFEAAGDIFFDGAWEREKAVSFYRDRALPLAVTTGNRKAELRLCNKLVALLATLEEPQEGLEFAHMALALSITLGDRLNERVAYHRLAALQHRLGHGELAEHFYLKALSLCNSPLEFDEETLYYVKVYLVLGDIIFYDLKDPFDAAGYYQLALAAAVDLGNKKAQLKIYTRLATIYHNFLLDREKSLFFYQKARTFATELNVRRVNLPPLPLCGWAPWLAPSHPR [SH3TC1]	-0.47	0.0532
MEPIYPFARPQMNTRFPSSRMVPFHFPPSKCALWNPTPTGDFIYLHLSYYRNPKLVVTEKTIRLAYRHAKQNKKNSSCFLLGSLTADEDEEGVTLTVDRFDPGREVPECLEITPTASLPGDFLIPCKVHTQELCSREMIVHSVDDFSSALKALQCHICSKDSLDCGKLLSLRVHITSRESLDSVEFDLHWAAVTLANNFKCTPVKPIPIIPTALARNLSSNLNISQVQGTYKYGYLTMDETRKLLLLLESDPKVYSLPLVGIWLSGITHIYSPQVWACCLRYIFNSSVQERVFSESGNFIIVLYSMTHKEPEFYECFPCDGKIPDFRFQLLTSKETLHLFKNVEPPDKNPIRCELSAESQNAETEFFSKASKNFSIKRSSQKLSSGKMPIHDHDSGVEDEDFSPRPIPSPHPVSQKISKIQPSVPELSLVLDGNFIESNPLPTPLEMVNNENPPLINHLEHLKPLQPQLYDEKHSPEVEAGEPSLRGIPNQLNQDKPALLRHCKVRQPPAYKKGNPHTRNSIKPSSHNGPSHDIFEKLQTVSAGNVQNEEYPIRPSTLNSRQSSLAPQSQPHDFVFSPHNSGRPMELQIPTPPLPSYCSTNVCRCCQHHSHIQYSPLNSWQGANTVGSIQDVQSEALQKHSLFHPSGCPALYCNAFCSSSSPIALRPQGDMGSCSPHSNIEPSPVARPPSHMDLCNPQPCTVCMHTPKTESDNGMMGLSPDAYRFLTEQDRQLRLLQAQIQRLLEAQSLMPCSPKTTAVEDTVQAGRQMELVSVEAQSSPGLHMRKGVSIAVSTGASLFWNAAGEDQEPDSQMKQDDTKISSEDMNFSVDINNEVTSLPGSASSLKAVDIPSFEESNIAVEEEFNQPLSVSNSSLVVRKEPDVPVFFPSGQLAESVSMCLQTGPTGGASNNSETSEEPKIEHVMQPLLHQPSDNQKIYQDLLGQVNHLLNSSSKETEQPSTKAVIISHECTRTQNVYHTKKKTHHSRLVDKDCVLNATLKQLRSLGVKIDSPTKVKKNAHNVDHASVLACISPEAVISGLNCMSFANVGMSGLSPNGVDLSMEANAIALKYLNENQLSQLSVTRSNQNNCDPFSLLHINTDRSTVGLSLISPNNMSFATKKYMKRYGLLQSSDNSEDEEEPPDNADSKSEYLLNQNLRSIPEQLGGQKEPSKNDHEIINCSNCESVGTNADTPVLRNITNEVLQTKAKQQLTEKPAFLVKNLKPSPAVNLRTGKAEFTQHPEKENEGDITIFPESLQPSETLKQMNSMNSVGTFLDVKRLRQLPKLF [STIL]	-0.362	0.239
MEPQEERETQVAAWLKKIFGDHPIPQYEVNPRTTEILHHLSERNRVRDRDVYLVIEDLKQKASEYESEAKYLQDLLMESVNFSPANLSSTGSRYLNALVDSAVALETKDTSLASFIPAVNDLTSDLFRTKSKSEEIKIELEKLEKNLTATLVLEKCLQEDVKKAELHLSTERAKVDNRRQNMDFLKAKSEEFRFGIKAAEEQLSARGMDASLSHQSLVALSEKLARLKQQTIPLKKKLESYLDLMPNPSLAQVKIEEAKRELDSIEAELTRRVDMMEL [HAUS1]	0.463	0.128
